In paper PMC2850201 (Archives of biochemistry and biophysics, 2008):
Entries after “also recorded” stand apart in the source; their conditions may differ. Where two headings read alike, the source gives them in different places. Peptide text beside a SMILES is read from it.

What was measured:
[1] = molecular target: FliM peptide (Escherichia coli) (UniProt P06974); conditions: cited from earlier work
[2] = molecular target: CheZ peptide (Escherichia coli) (UniProt P0A9H9); assay: fluorescence; conditions: cited from earlier work
Chain of CheZ peptide (Escherichia coli) (P0A9H9 whole entry): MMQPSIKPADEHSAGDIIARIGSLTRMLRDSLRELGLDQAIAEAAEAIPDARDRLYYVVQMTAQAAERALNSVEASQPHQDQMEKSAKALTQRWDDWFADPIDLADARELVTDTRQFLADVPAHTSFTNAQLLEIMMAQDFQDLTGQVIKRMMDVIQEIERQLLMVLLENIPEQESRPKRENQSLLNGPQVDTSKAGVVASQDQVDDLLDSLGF

[3] = molecular target: FliM peptide (Escherichia coli) (UniProt P06974); conditions: cited from earlier work; remark: listed apart in the source
[4] = molecular target: T87I/Y106W Phosphono-CheY (Escherichia coli, UniProt P0AE67, D57C/T87I/Y106W); type: binding, E. coli; conditions: ~2 μM protein, 100 mM HEPES, 10 mM MgCl2, 25 °C; no change in fluorescence intensity up to 500 μM peptide; uncertainty in intensity about 4 % due to noise
Chain of T87I/Y106W Phosphono-CheY (P0AE67 2-129 D57C/T87I/Y106W limits assumed): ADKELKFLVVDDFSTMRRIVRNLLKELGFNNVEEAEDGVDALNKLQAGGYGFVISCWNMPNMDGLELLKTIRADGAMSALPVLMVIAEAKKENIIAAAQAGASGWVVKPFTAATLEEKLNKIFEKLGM

T87I Phosphono-CheY = T87I Phosphono-CheY (Escherichia coli, UniProt P0AE67, D57C/T87I); type: binding, E. coli; conditions: ~2 μM protein, 100 mM HEPES, 10 mM MgCl2, 25 °C; no change in fluorescence intensity up to 500 μM peptide; uncertainty in intensity about 4 % due to noise
Chain of T87I Phosphono-CheY (P0AE67 2-129 D57C/T87I limits assumed): as the sequence (P0AE67 2-129 D57C/T87I/Y106W limits assumed) above, with W105Y counted along it

Phosphono-CheY [5] = molecular target: Phosphono-CheY (Escherichia coli, UniProt P0AE67, D57C); type: binding, E. coli; conditions: phosphono-CheY versus CheY~P
CheY~P = conditions: cited from earlier work
CheZ = conditions: cited from earlier work
flagellar rotation = conditions: cited from earlier work
Phosphono-CheY [6] = molecular target: T1, Phosphono-CheY (Escherichia coli, UniProt P0AE67 1-129, D57C, phosphonomethyl group on Cys57 (Pcy57)); assay: ITC
T1 sequence (looked up): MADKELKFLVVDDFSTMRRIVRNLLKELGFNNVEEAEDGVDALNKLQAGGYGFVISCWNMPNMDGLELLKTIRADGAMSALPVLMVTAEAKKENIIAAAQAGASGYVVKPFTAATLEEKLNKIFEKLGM

Phosphono-CheY [7] = molecular target: T1, Phosphono-CheY; assay: ITC; remark: listed apart in the source
Phosphono-CheY [8] = molecular target: T1, Phosphono-CheY; assay: other fluorescence titration

Chain of FliM peptide (Escherichia coli) (P06974 whole entry): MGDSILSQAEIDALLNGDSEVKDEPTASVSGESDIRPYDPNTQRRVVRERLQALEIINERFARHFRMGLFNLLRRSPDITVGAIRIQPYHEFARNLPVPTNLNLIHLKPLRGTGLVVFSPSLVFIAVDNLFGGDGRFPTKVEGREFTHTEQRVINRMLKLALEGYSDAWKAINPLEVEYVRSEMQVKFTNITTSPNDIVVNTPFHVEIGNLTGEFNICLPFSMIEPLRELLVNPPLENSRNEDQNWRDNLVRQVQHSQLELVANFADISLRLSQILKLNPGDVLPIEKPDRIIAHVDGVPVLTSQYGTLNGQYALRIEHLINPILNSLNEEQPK

In the case of CheY~P (from UniProt P0AE67), the Kd [1] is given as 27 µM and the Kd [2] is given as 26 µM.

In the case of CheY (from UniProt P0AE67), the Kd [3] is given as 680 µM and the Kd [2] is given as 440 µM.

In the case of `CC[C@H](C)[C@H](NC(=O)[C@H](CCC(=O)O)NC(=O)[C@H](C)NC(=O)[C@H](CCC(N)=O)NC(=O)[C@H](CO)NC(=O)[C@H](CC(C)C)NC(=O)[C@@H](NC(=O)[C@H](CO)NC(=O)[C@H](CC(=O)O)NC(=O)CNC(=O)[C@@H](N)CCSC)[C@@H](C)CC)C(=O)N[C@@H](CC(=O)O)C(=O)N[C@@H](C)C(=O)N[C@@H](CC(C)C)C(=O)N[C@@H](CC(C)C)C(=O)N[C@@H](CC(N)=O)C(=O)O` [FliM peptide] (H-MGDSILSQAEIDALLN-OH), the “Kd (fluorescence)” value [4] is reported as “Not detectable ^b”, the “Kd (fluorescence)” value (T87I Phosphono-CheY) is reported as “Not detectable ^b” and the “affinity / Kd for phosphono-CheY compared with CheY~P” value (Phosphono-CheY [5]) is reported as “CheY~P binds the same FliM peptide with slightly higher affinity; also recorded: almost identical”.

B1: CheY~P: phosphorylated form of CheY (protein, UniProt P0AE67 2-129, looked up)
Chemotaxis protein CheY: ADKELKFLVVDDFSTMRRIVRNLLKELGFNNVEEAEDGVDALNKLQAGGYGFVISDWNMPNMDGLELLKTIRADGAMSALPVLMVTAEAKKENIIAAAQAGASGYVVKPFTAATLEEKLNKIFEKLGM
modifications: phosphorylated
In the case of B1, the “half-life of CheY~P” value (CheY~P; in the absence of CheZ) is given as 15 to 20 s and the “in vivo half-life of CheY~P” value (CheZ; in vivo, autophosphatase plus CheZ) is given as “less than a second”.

B2: T87C CheY~P: phosphorylated T87C CheY (protein, UniProt P0AE67 2-129, looked up, variant T87C)
Chemotaxis protein CheY: ADKELKFLVVDDFSTMRRIVRNLLKELGFNNVEEAEDGVDALNKLQAGGYGFVISDWNMPNMDGLELLKTIRADGAMSALPVLMVCAEAKKENIIAAAQAGASGYVVKPFTAATLEEKLNKIFEKLGM
modifications: phosphorylated
In the case of B2, the “sensitivity to CheZ-promoted phosphatase activity” value (CheZ) is listed as “the same is true of T87C CheY~P”.

B3: Y106W CheY: Substitution of Tyr106 in E. coli CheY with tryptophan (protein, UniProt P0AE67 2-129, looked up, variant Y106W)
Chemotaxis protein CheY: ADKELKFLVVDDFSTMRRIVRNLLKELGFNNVEEAEDGVDALNKLQAGGYGFVISDWNMPNMDGLELLKTIRADGAMSALPVLMVTAEAKKENIIAAAQAGASGWVVKPFTAATLEEKLNKIFEKLGM
In the case of B3, the “flagellar rotation / swimming phenotype” value (flagellar rotation) is listed as “hyperactive mutant that generates mainly clockwise rotational bias”.

B4: T87I CheY: E. coli CheY mutant T87I (protein, UniProt P0AE67 2-129, looked up, variant T87I)
Chemotaxis protein CheY: ADKELKFLVVDDFSTMRRIVRNLLKELGFNNVEEAEDGVDALNKLQAGGYGFVISDWNMPNMDGLELLKTIRADGAMSALPVLMVIAEAKKENIIAAAQAGASGYVVKPFTAATLEEKLNKIFEKLGM
In the case of B4, the “generation of clockwise rotation of the flagella” value (flagellar rotation) is listed as “cannot generate clockwise rotation of the flagella”, the autodephosphorylation rate (CheY~P) is listed as ~ 5 fold lower and the “sensitivity to CheZ” value (CheZ) is listed as “completely resistant to CheZ activity”.

B5: T87I/Y106W CheY: E. coli CheY double mutant T87I/Y106W (protein, UniProt P0AE67 2-129, looked up, variant T87I Y106W)
Chemotaxis protein CheY: ADKELKFLVVDDFSTMRRIVRNLLKELGFNNVEEAEDGVDALNKLQAGGYGFVISDWNMPNMDGLELLKTIRADGAMSALPVLMVIAEAKKENIIAAAQAGASGWVVKPFTAATLEEKLNKIFEKLGM
For B5, the “generation of clockwise rotation of the flagella” value (flagellar rotation) is given as “cannot generate clockwise rotation of the flagella”, the autodephosphorylation rate (CheY~P) is given as ~ 5 fold lower and the “sensitivity to CheZ” value (CheZ) is given as “completely resistant to CheZ activity”.

B6: T87I/Y106W CheY~P: phosphorylated T87I/Y106W CheY (protein, UniProt P0AE67 2-129, looked up, variant T87I Y106W)
Chemotaxis protein CheY: ADKELKFLVVDDFSTMRRIVRNLLKELGFNNVEEAEDGVDALNKLQAGGYGFVISDWNMPNMDGLELLKTIRADGAMSALPVLMVIAEAKKENIIAAAQAGASGWVVKPFTAATLEEKLNKIFEKLGM
modifications: phosphorylated
In the case of B6, the “sensitivity to CheZ” value (CheZ) is given as “resistant to CheZ-promoted phosphatase activity”.

B7: T87I CheY~P: phosphorylated T87I CheY (protein, UniProt P0AE67 2-129, looked up, variant T87I)
Chemotaxis protein CheY: ADKELKFLVVDDFSTMRRIVRNLLKELGFNNVEEAEDGVDALNKLQAGGYGFVISDWNMPNMDGLELLKTIRADGAMSALPVLMVIAEAKKENIIAAAQAGASGYVVKPFTAATLEEKLNKIFEKLGM
modifications: phosphorylated
For B7, the “sensitivity to CheZ” value (CheZ) is given as “resistant to CheZ-promoted phosphatase activity”.

B8: CheZ peptide (peptide)
peptide: AGVVASQDQVDDLLDSLGF
For B8, the dH (Phosphono-CheY [6]) was -4.8 kcal/mol.

B9: FliM peptide (peptide)
peptide: MGDSILSQAEIDALLN
With B9 the dH (Phosphono-CheY [6]) was -2.4 kcal/mol, the Kd (Phosphono-CheY [7]) was 21 µM and the Kd (Phosphono-CheY [8]) was 38 ± 1 µM.
